These results are taken from patent US20230235040A1 (ALMIRALL S A, published 2023).

Assay [1] addresses T1, hu-IL-36α (human IL-36α, N-terminally truncated active form K6-F158) (human, UniProt Q9UHA7 6-158).
T1 sequence: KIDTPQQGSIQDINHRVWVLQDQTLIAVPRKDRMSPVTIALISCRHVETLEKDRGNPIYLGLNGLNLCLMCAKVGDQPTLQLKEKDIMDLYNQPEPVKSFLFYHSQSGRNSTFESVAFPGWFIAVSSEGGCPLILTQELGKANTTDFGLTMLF
Description: cell-based or functional assay.

Assay [2] deals with T2, hu-IL-36γ (human IL-36γ, N-terminally truncated active form S18-D169) (human, UniProt Q9NZH8 18-169).
T2 sequence: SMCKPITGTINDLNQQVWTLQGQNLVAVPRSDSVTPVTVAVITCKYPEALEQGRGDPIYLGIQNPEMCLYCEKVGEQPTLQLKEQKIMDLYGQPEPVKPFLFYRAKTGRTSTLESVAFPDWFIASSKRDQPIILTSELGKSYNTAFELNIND
Description: cell-based or functional assay.

The target of assay [3] is T1, hu-IL-36α (human IL-36α, N-terminally …). Description: cell-based or functional assay. The source holds these as a separate data set.
Assay [4] concerns the target T3, cy-IL-36α (cynomolgus monkey IL-36α, K6-F158) (cynomolgus monkey, UniProt Q9UHA7 14-158 (human entry)).
T3 chain: T1 sequence with I2S, D3E, T4M, Q7P, G8V, T24I, M34V, A40S, V74A
Description: cell-based or functional assay.

Assay [5] concerns the target T2, hu-IL-36γ (human IL-36γ, N-terminally …). Kind of assay: cell-based or functional assay. This is another data set of the same source.
Assay [6] has as its target T4, cy-IL-36γ (cynomolgus monkey IL-36γ, S18-K168) (cynomolgus monkey, UniProt Q9NZH8 18-167 (human entry)).
T4 chain: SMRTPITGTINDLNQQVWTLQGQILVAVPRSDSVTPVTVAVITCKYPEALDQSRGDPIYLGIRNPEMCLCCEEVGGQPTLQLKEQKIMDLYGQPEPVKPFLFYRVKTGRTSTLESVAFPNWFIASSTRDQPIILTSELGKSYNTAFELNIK
Kind of assay: cell-based or functional assay.

Assay [7] deals with T5, hu-IL-36β (human IL-36β, N-terminally truncated active form R5-E157) (human).
T5 construct: Purification tag cleaved off; Biotinylated where captured; also called hu-IL-36b
T5 chain: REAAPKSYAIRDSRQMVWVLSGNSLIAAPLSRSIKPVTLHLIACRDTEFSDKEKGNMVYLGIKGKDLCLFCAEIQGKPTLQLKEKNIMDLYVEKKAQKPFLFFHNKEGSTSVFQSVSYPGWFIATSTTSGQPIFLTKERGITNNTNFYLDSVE
Description: ELISA, yeast Fab supernatant, anti-Fab-HRP.

The target in assay [8] is T5, hu-IL-36β (human IL-36β, N-terminally …). Kind of assay: cell-based or functional assay.
In assay [9] the target is T6, cy-IL-36β (cynomolgus monkey IL-36β, W5-E157) (cynomolgus monkey).
T6 construct: Purification tag cleaved off
T6 chain: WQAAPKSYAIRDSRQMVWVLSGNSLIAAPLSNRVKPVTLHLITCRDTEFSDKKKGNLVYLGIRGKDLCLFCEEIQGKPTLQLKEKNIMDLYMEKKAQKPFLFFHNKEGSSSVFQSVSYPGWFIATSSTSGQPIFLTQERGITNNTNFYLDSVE
Kind of assay: ELISA on coated cy- and hu-IL-36β, yeast Fab supernatant; ratio of OD450. As for the experimental part: Cell supernatants from yeast clones of interest were tested for binding to human IL-36 by ELISA as described above. To compare the binding of these supernatants to human and cynomolgus monkey IL-36, IL-36 proteins were coated at 2.5 μg/mL on 96-well Nunc MaxiSorp plates (Thermo Fisher) and the plates blocked with 5% goat serum in PBS. Yeast supernatants were diluted 1:1 with PBST containing 1% w/v BSA and added to the ELISA plates for 1-1.5 hours with agitation. Bound Fab was detected by incubating the plates with F(ab′)2-HRP (Jackson ImmunoResearch). The ELISAs were developed for 3-10 minutes by addition of 50 μL/well of tetramethylbenzidine (TMB) microwell peroxidase substrate (Scytek Laboratories, Inc., Logan, Utah, USA) and enzymatic color development was stopped by acidification with 50 µL/well of 2 N H₂SO₄ (Sigma-Aldrich Corporation, St. Louis, Mo., USA). The optical density of the samples at a wavelength of 450 nm (OD450) was analyzed with a SpectraMax i3X plate reader (Molecular Devices LLC, San Jose, Calif., USA). To estimate the relative affinity of each clone for cynomolgus monkey IL-36 and human IL-36 in this assay, a ratio of OD450 (OD450_cyIL-36/OD450_huIL-36) was calculated for each clone and IL-36 cytokine.

The target of assay [10] is T5, hu-IL-36β (human IL-36β, N-terminally …). Kind of assay: cell-based or functional assay.
Assay [11] addresses T6, cy-IL-36β (cynomolgus monkey IL-36β, …). Kind of assay: cell-based or functional assay.
Assay [12] deals with T5, hu-IL-36β (human IL-36β, N-terminally …). Description: cell-based or functional assay.
Assay [13] has the same target. Kind of assay: SPR (Biacore 8K), IgG captured on protein A chip, hu-IL-36β injected, 37°C. As for the experimental part:
(§1) FC1 was kept as a reference. Next, 3-fold serial dilutions of hu-IL-36β in HBS-P buffer from low (0.046 nM of hu-IL-36β) to high (100 nM of hu-IL-36β) were injected (flow rate: 30 μL/min) at either 37° C. The sensorgram was recorded and subject to reference and buffer subtraction before data analysis with the BIACORE® 8K Evaluation Software (GE Healthcare, Chicago, Ill., USA; version 1.1.1.7442). Association rates (kₒₙ) and dissociation rates (koff) were calculated using a simple one-to-one Langmuir binding model. The equilibrium dissociation constant (KD) was calculated as the ratio of koff/kₒₙ.

The target is the same in assay [14]. Description: SPR (Biacore 8K), IgG captured on protein A chip, 37°C. As for the experimental part: as §1

Residue numbers refer to the chain shown, from its start.

B1: mAb2.0 recombinant human IgG1 (antibody, V domains shown)
VH: QLQLQESGPGLVKPSETLSLTCTVSGGSISTSSYYWGWIRQPPGKGLEWIGSIYYTGNTYYNPSLKSRVTISVDTSKNQFSLKLSSVTAADTAVYYCARVRYGVGVPRYFDPWGQGTLVTVSS
VL: QSVLTQPPSVSGAPGQRVTISCTGSSSNIGAHYDVHWYQQLPGTAPKLLIYGNDNRPSGVPDRFSGSKSGTSASLAITGLQAEDEADYYCQSYDYSLSGYVFGGGTKLTVLG
Consider B1, for which the “IC50, HEK-Blue IL-36R SEAP reporter assay” value in assay [1] amounted to 5.7 nM; in assay [2], 7.5 nM. The “IC50, IL-36-stimulated IL-8 secretion by HaCat cells” value in assay [3] is 0.28 nM; in assay [5] it was 1.23 nM. Besides, the “IC50, IL-36-stimulated IL-8 secretion by primary human keratinocytes (HEKn)” value in assay [3] worked out at 0.33 nM; in [5], 2.27 nM. Further, the “blocking potency relative to the natural antagonist IL-36Ra, HaCat IL-8 assay” value in [3] is 100 fold; in assay [5], 12 fold. The “IC50, HEK-Blue assay with human IL1RL2” value in assay [4] was found to be 0.56 nM; in [6], 1.71 nM.

B2: mAb6.0 Fab (yeast clone culture supernatant) (Fab, V domains shown)
VH: QLQLQESGPGLVKPSETLSLTCTVSGGSITSSNYYWGWIRQPPGKGLEWIGSIDYTGSTYYNPSLKSRVTISVDTSKNQFSLKLSSVTAADTAVYYCARGKYYETYLGFDVWGQGTLVTVSS
VL: QSVLTQPPSVSGAPGQRVTISCTGSSSNIGAGYDVHWYQQLPGTAPKLLIYGNTNRPSGVPDRFSGSKSGTSASLAITGLQAEDEADYYCQSYDISLSGWVFGGGTKLTVL
notes: Human Fab secreted by the yeast clone, not purified
As to B2, the “ELISA OD450” value in [7] was found to be 2.34 OD450. In addition, the “% Inhibition, HEK-Blue IL-36R SEAP reporter assay” value in [8] came out at 86%. For the same molecule, the “ELISA OD450cyIL-36/OD450hu-IL-36” value in [9] was 4 ratio.

B3: mAb6.0 recombinant human IgG1 (antibody, V domains shown)
VH: B2 VH
VL: QESVLTQPPSVSGAPGQRVTISCTGSSSNIGAGYDVHWYQQLPGTAPKLLIYGNTNRPSGVPDRFSGSKSGTSASLAITGLQAEDEADYYCQSYDISLSGWVFGGGTKLTVLG
notes: Human IgG1; also called mAb6.0 IgG
For the molecule B3, the “IC50, HEK-Blue IL-36R SEAP reporter assay” value in [10] came to 0.64 nM. In [11], the “IC50, HEK-Blue assay with human IL1RL2” value worked out at 1.96 nM. In assay [12], the “IC50, IL-36-stimulated IL-8 secretion by HaCat cells” value stood at 0.082 nM; the “IC50, IL-36-stimulated IL-8 secretion by primary human keratinocytes (HEKn)” value came to 1.75 nM; the “IC50, hu-IL-36β-stimulated IL-8 secretion by HaCat cells” value worked out at 0.8 nM; the “blocking potency relative to IL-36Ra, HaCat IL-8 assay” value worked out at 1000 fold. In assay [13], this molecule had a Kd of 0.42 nM, a koff of 0.000115 s⁻¹ and a kon of 362000 M⁻¹ s⁻¹.

B4: mAb6.0_2.0 IgG (mAb6.0 HC/mAb2.0 LC chimera) (antibody, V domains shown)
VH: B2 VH
VL: B1 VL
B4: in [12], the “IC50, hu-IL-36β-stimulated IL-8 secretion by HaCat cells” value turned out to be 12.7 nM and the “fold decrease in potency relative to mAb6.0 IgG, HaCat IL-8 assay” value is 16 fold. In assay [13], this molecule yielded a Kd of 6.7 nM, a koff of 0.00214 s⁻¹ and a kon of 320000 M⁻¹ s⁻¹. Further, in assay [14], the “fold lower affinity than mAb6.0” value was 16 fold.

B5: mAb7.0 Fab (yeast clone culture supernatant) (Fab, V domains shown)
VH: QVQLVESGGGVVQPGRSLRLSCAASGFTFSSYGMHWVRQAPGKGLEWVAVISYGGSERYYADSVKGRFTISRDNSKNTLYLQMNSLRAEDTAVYYCAREPWYSSRGWTGYGFDVWGQGTLVTVSS
VL: EIVLTQSPGTLSLSPGERATLSCRASQSVSSNYLAWYQQKPGQAPKLLIYSASSLQSGVPSRFSGSGSGTDFTLTISSLQPEDFATYYCQQTYSYPPTFGQGTKVEIK
notes: as for B2
As for B5, the “ELISA OD450” value in [7] was 2.58 OD450. Further, in [8], the “% Inhibition, HEK-Blue IL-36R SEAP reporter assay” value came out at 84%. In addition, the “ELISA OD450cyIL-36/OD450hu-IL-36” value in [9] worked out at 3.9 ratio.
